Columns and labels:
Assay in all cases: Crosslinking/co-immunoprecipitation/mass spectrometry (TMT quantitative proteomics) to identify irisin receptors
Type in all cases: binding
[1] = biological target: T1, MLO-Y4 cell surface proteins (Mus musculus, UniProt Q66L42); conditions: co-precipitated protein Map3k10 (M3K10_MOUSE)
T1 construct: endogenous in cells; host or cells: MLO-Y4
In short: (§1)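 Mouse MLO-Y4 cells were switched to serum-free FreeStyle medium for 4 h, chilled, then exposed to 10 nM His-tagged irisin (or adipsin as control) for 20 min. Cells were crosslinked with 1.5 mM DTSSP (30 min, ice), and bound proteins were pulled down on Ni-NTA and eluted with 250 mM imidazole. Eluates were separated by SDS-PAGE, trypsin-digested in gel, TMT 6-plex labelled and quantified by MS3-based LC-MS/MS on an Orbitrap Fusion Lumos.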

[2] = biological target: T2, MLO-Y4 cell surface proteins (Mus musculus, UniProt Q99KR7); conditions: co-precipitated protein Ppif (PPIF_MOUSE)
T2 construct: endogenous in cells; host or cells: MLO-Y4
In short: as §1

[3] = biological target: T3, MLO-Y4 cell surface proteins (Mus musculus, UniProt Q8R1I1); conditions: co-precipitated protein Uqcr10 (QCR9_MOUSE)
T3 construct: endogenous in cells; host or cells: MLO-Y4
T3 sequence (Q8R1I1 1-64): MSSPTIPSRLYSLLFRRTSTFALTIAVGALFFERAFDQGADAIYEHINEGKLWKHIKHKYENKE
In short: as §1

[4] = biological target: T4, MLO-Y4 cell surface proteins (Mus musculus, UniProt Q9CXD6); conditions: co-precipitated protein Mcur1 (MCUR1_MOUSE)
T4 construct: endogenous in cells; host or cells: MLO-Y4
T4 sequence (Q9CXD6 1-340): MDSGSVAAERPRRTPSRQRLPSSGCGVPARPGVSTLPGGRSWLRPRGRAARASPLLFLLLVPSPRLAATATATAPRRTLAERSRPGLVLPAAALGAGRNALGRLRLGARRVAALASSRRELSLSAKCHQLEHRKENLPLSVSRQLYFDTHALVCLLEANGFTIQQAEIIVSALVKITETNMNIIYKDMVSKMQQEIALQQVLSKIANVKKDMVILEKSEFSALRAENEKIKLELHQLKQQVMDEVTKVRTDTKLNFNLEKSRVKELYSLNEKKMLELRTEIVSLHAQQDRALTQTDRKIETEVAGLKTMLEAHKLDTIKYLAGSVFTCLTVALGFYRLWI
In short: as §1

[5] = biological target: T5, MLO-Y4 cell surface proteins (Mus musculus, UniProt Q8BFT2); conditions: co-precipitated protein Haus4 (HAUS4_MOUSE)
T5 construct: endogenous in cells; host or cells: MLO-Y4
T5 sequence (Q8BFT2 1-363): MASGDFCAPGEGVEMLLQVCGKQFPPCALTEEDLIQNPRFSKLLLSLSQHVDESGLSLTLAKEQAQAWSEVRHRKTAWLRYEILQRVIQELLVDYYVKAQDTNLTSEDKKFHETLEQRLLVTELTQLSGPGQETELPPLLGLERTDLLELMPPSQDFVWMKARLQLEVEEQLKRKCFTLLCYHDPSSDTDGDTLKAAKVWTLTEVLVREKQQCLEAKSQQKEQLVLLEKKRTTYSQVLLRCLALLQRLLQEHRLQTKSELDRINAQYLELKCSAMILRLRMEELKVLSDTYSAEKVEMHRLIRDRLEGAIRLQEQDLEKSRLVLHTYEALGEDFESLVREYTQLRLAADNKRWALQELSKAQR
In short: as §1

[6] = biological target: T6, MLO-Y4 cell surface proteins (Mus musculus, UniProt E9Q0C6); conditions: co-precipitated protein Gm14569 (E9Q0C6_MOUSE)
T6 construct: endogenous in cells; host or cells: MLO-Y4
In short: as §1

[7] = biological target: T7, MLO-Y4 cell surface proteins (Mus musculus, UniProt P59999); conditions: co-precipitated protein Atpc4 (ARPC4_MOUSE)
T7 construct: endogenous in cells; host or cells: MLO-Y4
In short: as §1

T6 sequence (E9Q0C6 whole entry): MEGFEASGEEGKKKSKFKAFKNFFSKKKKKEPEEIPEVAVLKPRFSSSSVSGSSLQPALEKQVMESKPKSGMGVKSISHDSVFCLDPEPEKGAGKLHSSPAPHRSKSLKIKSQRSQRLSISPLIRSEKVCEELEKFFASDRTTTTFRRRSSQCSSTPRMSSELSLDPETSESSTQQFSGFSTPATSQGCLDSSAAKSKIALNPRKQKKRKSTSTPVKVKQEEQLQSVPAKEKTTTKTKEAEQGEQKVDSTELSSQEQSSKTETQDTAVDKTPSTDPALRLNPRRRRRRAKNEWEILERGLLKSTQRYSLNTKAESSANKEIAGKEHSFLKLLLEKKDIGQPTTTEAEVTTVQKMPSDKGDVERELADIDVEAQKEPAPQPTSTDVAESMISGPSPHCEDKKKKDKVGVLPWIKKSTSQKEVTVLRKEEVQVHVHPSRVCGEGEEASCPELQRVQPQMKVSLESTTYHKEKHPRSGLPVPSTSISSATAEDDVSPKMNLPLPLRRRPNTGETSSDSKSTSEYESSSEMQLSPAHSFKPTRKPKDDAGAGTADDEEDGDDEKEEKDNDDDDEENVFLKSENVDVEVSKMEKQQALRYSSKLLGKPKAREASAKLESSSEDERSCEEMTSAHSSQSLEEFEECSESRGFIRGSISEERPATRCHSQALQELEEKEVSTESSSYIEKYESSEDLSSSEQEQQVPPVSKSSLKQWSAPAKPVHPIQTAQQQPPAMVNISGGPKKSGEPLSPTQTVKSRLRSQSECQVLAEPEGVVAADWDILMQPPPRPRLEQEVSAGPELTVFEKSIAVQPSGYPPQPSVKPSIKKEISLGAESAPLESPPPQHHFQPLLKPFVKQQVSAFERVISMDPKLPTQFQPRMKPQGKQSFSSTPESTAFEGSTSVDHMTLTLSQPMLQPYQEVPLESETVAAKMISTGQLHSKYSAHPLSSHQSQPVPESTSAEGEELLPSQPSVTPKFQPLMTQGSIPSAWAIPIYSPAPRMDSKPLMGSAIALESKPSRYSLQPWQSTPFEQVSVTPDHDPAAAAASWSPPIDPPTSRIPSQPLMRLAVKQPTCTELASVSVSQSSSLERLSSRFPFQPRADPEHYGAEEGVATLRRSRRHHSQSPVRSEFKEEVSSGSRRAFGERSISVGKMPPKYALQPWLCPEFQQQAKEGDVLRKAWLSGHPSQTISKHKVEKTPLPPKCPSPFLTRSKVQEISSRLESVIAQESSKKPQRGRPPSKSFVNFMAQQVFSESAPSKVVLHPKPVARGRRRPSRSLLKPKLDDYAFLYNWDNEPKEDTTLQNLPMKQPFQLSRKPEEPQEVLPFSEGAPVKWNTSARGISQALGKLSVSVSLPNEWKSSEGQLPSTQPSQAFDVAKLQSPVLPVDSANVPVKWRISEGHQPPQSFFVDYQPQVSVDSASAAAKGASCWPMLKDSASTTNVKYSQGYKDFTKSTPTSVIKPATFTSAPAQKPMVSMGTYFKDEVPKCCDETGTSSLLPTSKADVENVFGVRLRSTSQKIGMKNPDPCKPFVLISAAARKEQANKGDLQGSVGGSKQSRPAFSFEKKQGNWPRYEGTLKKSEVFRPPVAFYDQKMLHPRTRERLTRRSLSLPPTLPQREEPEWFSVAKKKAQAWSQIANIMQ
T2 sequence (Q99KR7 30-206): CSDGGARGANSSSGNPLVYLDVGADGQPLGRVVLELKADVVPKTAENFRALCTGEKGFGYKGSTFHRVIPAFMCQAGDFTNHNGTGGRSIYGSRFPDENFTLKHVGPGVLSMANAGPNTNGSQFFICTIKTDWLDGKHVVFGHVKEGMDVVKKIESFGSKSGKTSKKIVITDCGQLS
T1 sequence (Q66L42 whole entry): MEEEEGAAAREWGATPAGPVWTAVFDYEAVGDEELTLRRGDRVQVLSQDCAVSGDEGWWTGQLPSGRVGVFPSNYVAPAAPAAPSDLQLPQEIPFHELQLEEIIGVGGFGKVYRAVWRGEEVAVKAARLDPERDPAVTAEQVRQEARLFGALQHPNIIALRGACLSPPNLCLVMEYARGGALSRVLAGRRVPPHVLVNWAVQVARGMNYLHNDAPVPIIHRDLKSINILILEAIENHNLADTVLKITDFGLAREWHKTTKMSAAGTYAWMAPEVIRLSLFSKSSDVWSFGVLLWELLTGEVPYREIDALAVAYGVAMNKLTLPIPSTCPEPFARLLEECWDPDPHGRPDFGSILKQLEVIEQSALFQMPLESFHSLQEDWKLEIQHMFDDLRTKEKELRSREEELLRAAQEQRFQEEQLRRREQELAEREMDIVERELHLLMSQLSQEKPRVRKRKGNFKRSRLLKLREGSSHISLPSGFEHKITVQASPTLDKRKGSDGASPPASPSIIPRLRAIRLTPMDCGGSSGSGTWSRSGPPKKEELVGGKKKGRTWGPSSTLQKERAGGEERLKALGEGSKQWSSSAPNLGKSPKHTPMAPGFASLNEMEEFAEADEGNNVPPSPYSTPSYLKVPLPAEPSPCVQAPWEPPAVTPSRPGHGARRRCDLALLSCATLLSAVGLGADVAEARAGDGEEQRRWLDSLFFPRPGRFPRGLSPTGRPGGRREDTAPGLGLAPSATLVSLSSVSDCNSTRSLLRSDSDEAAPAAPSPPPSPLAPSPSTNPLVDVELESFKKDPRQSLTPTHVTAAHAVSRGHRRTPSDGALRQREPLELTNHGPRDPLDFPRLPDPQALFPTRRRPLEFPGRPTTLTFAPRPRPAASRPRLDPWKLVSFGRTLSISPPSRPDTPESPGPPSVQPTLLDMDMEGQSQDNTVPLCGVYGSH

adipsin
TMT signal-to-noise ratio [1]: 109.366
TMT signal-to-noise ratio [2]: 249.839
TMT signal-to-noise ratio [3]: 243.198
TMT signal-to-noise ratio [4]: 1631.69
TMT signal-to-noise ratio [5]: 518.102
TMT signal-to-noise ratio [6]: 224.172
TMT signal-to-noise ratio [7]: 138.296
